Source: a protein production outcome set (Wang et al. 2014)

Experiment: label from the status in PepcDB records

Row | Sequence | protein production
1 | MGERGVEMRLRIRFESAECEVELYEEWAPETVRAIADALPIKSTANRWGDEIYFTTQVAVEKEENSKDVVELGDVAYWIPGKAICLFFGKTPISDDKIRPASAVNVIGRIVNSMEGLKGVADGESVVVERA | not failed
2 | MAPFTLYTHAGPGPNPVKVAMALEHLGLDYDCIPLAFGEGKGTVKDPEYTSKVNPNGRVPGLIDHENNDFTVFESAAILQYLAEKTIQYDTSGKLAGSTPEERATVNKWLAWQVSGLGPYQGQLVWFLAFHEGAHGEKPNGSVIARYQAEVERLRSVLEKHLASAENGFVALGRLTIADFAILPWLKISVLAGSALKSFEEYPAINAYIKKLDALPEVQAAYKKAVPPMQ | failed
3 | MHILYFLFPKVTFNSFSTPIFFTLISFYSLVTFFPLLSLFIRTSIPSNLINMIIQNSIKGVFVHLDVKMRFFLDFYFLNSLICYSNYIVPFLLAHTLNLITPSVLTTVECDF | failed
4 | VTGSIRSKLSAIDVRQLGTVDYRTAWQLQRELADARVAGGADTLLLLEHPAVYTAGRRTETHERPIDGTPVVDTDRGGKITWHGPGQLVGYPIIGLAEPLDVVNYVRRLEESLIQVCADLGLHAGRVDGRSGVWLPGRPARKVAAIGVRVSRATTLHGFALNCDCDLAAFTAIVPCGISDAAVTSLSAELGRTVTVDEVRATVAAAVCAALDGVLPVGDRVPSHAVPSPL | not failed
5 | MEDIVHKYKVSVIICFFNSAETLDAMIKDAVNQTLKDKEIILIDDGSYDGSLEIAEKYANKYSFIKIFSQKNMGLSASRDKGLSEAQGEYVIYWDGDDSVESTMLEVLYNRAKADNSDIVCSQFYIYFLAINVKRKSLLPFPNYPLTGKEAFKNLLFTVYATFGRKNFVVGTLWDKLIRRELILKNNIRQQNVVFEDIVFVMQIFLKASKVSFVNNYFYTNFQRMGSMSSSISVLHKSKLSLNTMETLLKREGIFNECQNLYKKFFLQFYYFISFKQIYIISWNISDKLVYRAYKEKLISVLDEIKGLSEFQDCYEYAKSFGFNEIQILPRIMLKIWNFSSRLYVNFSIFIYKFFIKN | failed
6 | MGGSNMKLDFSVAVHSILYLDAHRDSKVASRELAQSLHLNPVMIRNILSVLHKHGYLTGTVGKNGGYQLDLALADMNLGDLYDLTIPPTISYARFITGPSKTDEQADQSPIAANISETLTDLFTVADRQYRAYYHQFTMADLQADLNHHGTFLQHEQDSES | not failed
7 | NVYDLANELERAVRALPEYQAVLTAKSAIESDADAQVLWQDFLATQSKVQEMMQSGQMPSQEEQDEMSKLGEKIESNDLLKVYFDQQQRLSVYMSDIEKIVFAPMQDL | not failed
8 | MPNGPTCAARRARARSALVGGEGFRMEWSGKRVSDGSATRPTVAAWVSGGFGSGESVAAFKALATEAEAGDASAQRRLGLCFRDGLGTDRDIHRAKAWYQRSAAQNDPMAALELGLMLESGLGISSDHGEAGKWYRVALDLWRDRAEGGDALGQFVLGLCHEVGAGVPAAHREALKWYGRSAERGCAHAQWALGRLHEDGLGVVRDYSEAVRCYRAAAFQGHARACFNLGLMAELGLGMVRDADCSASWYGKALEVWRRWAELGDPAAATALAAMYEAGHGVAKDYAVAVCWYRRAARQGNPLAQFELGRLSMEGRGVERNDVEAVGWFRLAAERGHADAQFHLGLMHEHGRGVTRRFEEAFRWYDKAADEGPARRWDAFHRLVPAAGEVPEGCGLGAW | failed
9 | MAIDTNSSTPLVSVITPTYNRPNYLQAALTSAVRQTYSHIEIIVCDNCSPQNPQAIVDSFDDSRIRFFRNSSNMGMFANTIKAFKMARGKYVACLLDDDLWEEDFLEKLVPPLEANPNLALAFCDHYIMDANGNIDDALTEEYSRSYKRVDLPEGIYQPFYRMGLVDRSVSTATAAVMRRDAIAWDAIPAEVGGSWDIYLNYLCCRSGLGAYFYPEKLTRYRVHEQTETMLSGKRDAQAKIRKAQADMFCYEQFMADERLQELKPYFQQQWAHVSTTLGIGFMRSKQMKLARSYFWRSLKQSLKLRTMAGLMLSFTPPTIASRF | failed
10 | MFLRTQARFFHATTKKMDFSKMSIVGRIGSEFTEHTSANNNRYLKYSIASQPRRDGQTNWYNITVFNEPQINFLTEYVRKGALVYVEADAANYVFERDDGSKGTTLSLVQKDINLLKNGKKLEDAEGQENAASSE | failed
11 | MNLLLIVVFGAILEIAVWIGIAQFISGWYVFFWFIIAFFIGLSMLRSSTSSIMPQLQQMQMSGQMGNDPAVTKKLAVAMAGFLLMLPGVVSDILALLILIPGVQTLFRNALMKTLAKRQQAMMNKMMGGMMGGDVGGNAGQNPFEDLMRQMQNMQNQQGASPYNDSNVIDGEAREVKPDQKQIEHKDK | failed
12 | MFESLNKVINGYGLISGFAIIGVTMAVSYWLSARLTRGRLHGSAIAIFLGLVLSYVGGVATGGQKGLVDVPLMSGIGLLGGAMLRDFAIVATAFGVNVEELRRAGVSGVVSLFLGVGSSFVAGVAVAMAFGYTDAVSLTTIGAGAVTYIVGPVTGAALGASSEVMALSIAAGLVKAILVMVLTPFVAPYIGLNNPRTAVIFGGLMGTSSGVAGGLAATDPKLVPYGCLTAAFYTAIGCLLGPSLLYFSVRGLVG | failed
13 | MSMECVVQGIIETQHVEALEILLQGLCGVQRERLRVHELCLRSGPNLGVVSSEVRLLCDLDQPEPTWTVKHVGGAMRGAGADQISVLVRNMIESKVSKNALRMFYALGYKLDHELLKVGFAFHFQRTAHISVSVSSVNKMPKVHAIDEAVPVTPGMQIVDVTAPATSENYSEVAAAVSSFCEFLAPLVHLSKPSISTGVVPTAAAAAASLMSDGGGTTL | failed
14 | MVESWALTTPPIDIVNQYLFFIKRKTNYMATYYYALASQKFLLEEEPFEEVLKERRRDYGEKNKEIDFWQVIQPAFLNAPELAEAKAKAPEKNVAIVSTNKSFIVWVKLRLEYVLTGEFEAPSDAIPDPLASLDLEHHHHHH | failed
